Experimental data reported in patent US20090282582A1, “ENVIRONMENTAL STRESS RESPONSIVE PROMOTER AND METHOD OF TISSUE-SPECIFIC GENE EXPRESSION USING THE SAME” (RIKEN, priority 2006, published 2009).

What was measured:
[1] = test system: transgenic Arabidopsis thaliana plant body (luciferase reporter gene); experiment: luciferase assay of promoter::LUC transgenic plants after environmental stress application; type: in vivo; settings: for Tissue allowing specific induction: summary over stress types
Protocol: Specifically, promoter regions were isolated from these genes, transgenic plants in which luciferase reporter genes were to be expressed under the control of such promoters were prepared, and tissue specificity of the promoters was inspected via luciferase assay.
In this example, DNA fragments containing promoter regions of the genes identified in Example 1 were recovered via PCR.
The nucleotide sequences of the amplified DNA fragments were determined in accordance with a conventional technique to confirm that mutagenesis, such as substitution or deletion, was not introduced thereinto. After the absence of mutagenesis was confirmed, the recovered DNA fragments were introduced into the vector for promoter analysis (i.e., a vector prepared by introducing the Gateway recombinant sequence (tradename: Gateway Vector Conversion System, Invitrogen) and the luciferase reporter gene into the pGreen vector (Plant Molecular Biology 42: 819-832, 2000)) using the Gateway recombination system to construct a recombinant vector.
The recombinant vector prepared in (1) above was introduced into a plant via Agrobacterium infection. When a gene is introduced via Agrobacterium infection, a process of infecting a plant with Agrobacterium containing a plasmid comprising the target gene construct is necessary. This process was carried out via vacuum infiltration. Specifically, a plant body of Arabidopsis thaliana that had been grown in soil comprising vermiculite and an equivalent amount of pearlite was soaked in a culture solution of Agrobacterium containing the recombinant vector prepared in (1). The resultant was placed in a desiccator, suctioned with a vacuum pump to 65 to 70 mmHg, and then allowed to stand at room temperature for 5 to 10 minutes. The pot was transferred onto a tray, covered with a wrap, and kept moistened. The wrap was removed on the following day, the plant was allowed to grow in that state, and seeds were then harvested.
Subsequently, seeds were sown on MS agar medium to which antibiotic hygromycin has been added in order to select an individual having the recombinant vector prepared in (1). Arabidopsis thaliana that had been grown in this medium was transferred to a pot and allowed to grow therein. Thus, seeds of transgenic plants to which the recombinant vector prepared in (1) has been introduced were obtained.
The seeds of the transgenic plant lineage prepared in (2) were sowed on MS agar medium. The plant body 10 days after sowing was used for luciferase assay.
At the outset, 1 mM luciferin (containing 0.01% Triton-X) was sprayed over the entire plant body 5 times. After the plant body was allowed to stand in the dark for 5 minutes, luciferase luminescence was assayed using ARGUS (assay after treatment for 0 hours). Subsequently, various types of environmental stresses were applied (see below). Low-temperature stress application was carried out by introducing a plate containing a plant body into a low-temperature chamber (4° C.). Dehydration stress application was carried out by capturing the plant body with forceps while refraining from damaging the plant body, roughly removing moisture from the plant body on a Kim Towel, placing the plant body on another plate, placing the plate in a clean bench while leaving the lid open, letting it stand for 2 hours, and then closing the lid. Salt stress application was carried out by dispensing a mixture of MS medium (containing 1% sucrose, 0.1% agar, and 1 mM luciferin) with 250 mM NaCl to the roots of the plant bodies (200 μl per plant body) using a Pipetman. ABA stress application was carried out by dispensing a mixture of MS medium (containing 1% sucrose, 0.1% agar, and 1 mM luciferin) with 100 μM ABA to the roots of the plant bodies (200 μl per plant body) using a Pipetman.
Luciferase luminescence was assayed 2, 5, and 10 hours after the above various types of environmental stresses had been applied using the ARGUS system (Hamamatsu Photonics). […]

[2] = test system: Arabidopsis thaliana (columbia ecotype) plant body; experiment: full-length cDNA microarray analysis of gene expression levels after environmental stress application; settings: in vivo
Protocol: In this example, the gene expression levels at the time of application of various types of environmental stresses were analyzed using microarrays. Specifically, the microarrays described in Seki et al., “Monitoring the expression profiles of 7000 Arabidopsis genes under drought, cold, and high-salinity stresses using a full-length cDNA microarray,” Plant J. 31: 279-292, 2002, were used, and analysis was carried out in accordance with the method similar to the method described therein. Various types of environmental stresses were applied to a plant body under the following conditions. Specifically, low-temperature stress application was carried out by introducing a plate containing a plant body into a low-temperature chamber (4° C.). Dehydration stress application was carried out by capturing the plant body with forceps while refraining from damaging the plant body, roughly removing moisture from the plant body on a Kim Towel, placing the plant body on another plate, placing the plate in a clean bench while leaving the lid open, letting it stand for 2 hours, and then closing the lid. Salt stress application was carried out by dispensing a mixture of MS medium (containing 1% sucrose, 0.1% agar, and 1 mM luciferin) with 250 mM NaCl to the roots of the plant bodies (200 μl per plant body) using a Pipetman. ABA stress application was carried out by dispensing a mixture of MS medium (containing 1% sucrose, 0.1% agar, and 1 mM luciferin) with 100 μM ABA to the roots of the plant bodies (200 μl per plant body) using a Pipetman. As a plant body to which environmental stress is to be applied, Arabidopsis thaliana (columbia ecotype), which had been cultivated on a germination medium containing Murashige and Skoog Salt, 3% sucrose, and […] for 3 weeks, was used. Cultivation conditions were determined so as to maintain the temperature in the chamber at 22° C. with a 16-hour light period and an 8-hour dark period. Total RNA was extracted from plant bodies after environmental stress application or from plant bodies to which no environmental stress had been applied using the TRIZOL Reagent (Life Technologies), and mRNA was extracted using the mRNA isolation kit (Militenyi Biotec Auburn). In accordance with the method described in the above article, mRNA samples were reversely transcribed in the presence of Cy3 dUTP or Cy5 dUTP (Amersham Pharmacia). Microarray analysis was carried out using cDNAs obtained via reverse transcription. Data obtained via microarray analysis were analyzed using the Quantarray Version 2.0 (GSI Lumonics).

| Molecule | Tissue in which specific induction of expression is realized ([1]; ABA stress (100 μM ABA)) | Tissue in which specific induction of expression is realized ([1]; ABA stress (100 μM ABA), listed as promoter of RAFL05-20-M16) | time after stress application at which activity to induce gene expression is exhibited ([1]; ABA stress, root tissue) | Tissue in which specific induction of expression is realized ([1]; Dehydration stress) | time after stress application at which activity to induce gene expression is exhibited ([1]; Dehydration stress) | Tissue in which specific induction of expression is realized ([1]; Dehydration stress, listed as promoter of RAFL05-20-M16) | Tissue allowing specific induction [1] | Environmental stress type to which the promoter responds [2] | Tissue in which specific induction of expression is realized ([1]; ABA stress (100 μM ABA), listed as promoter of RAFL05-17-B13) | Tissue in which specific induction of expression is realized ([1]; Dehydration stress, listed as promoter of RAFL05-17-B13) | Tissue in which specific induction of expression is realized ([1]; Low temperature stress (4° C.)) | Tissue in which specific induction of expression is realized ([1]; Low temperature stress (4° C.), listed as promoter of RAFL05-17-B13) | Tissue in which specific induction of expression is realized ([1]; Salt stress (250 mM NaCl)) | Tissue in which specific induction of expression is realized ([1]; Salt stress (250 mM NaCl), listed as promoter of RAFL05-17-B13) |
| --- | --- | --- | --- | --- | --- | --- | --- | --- | --- | --- | --- | --- | --- | --- |
| Promoter of RAFL05-20-M16: environmental stress responsive promoter DNA, SEQ ID NO: 3, upstream of At2g46680 (ATHB7 transcription factor) | Root tissue | root tissue | about 2 hours | Root tissue | about 10 hours | root tissue | Stem and leaf tissue and root tissue | Dehydration and salt | – | – | – | – | – | – |
| Promoter of RAFL05-17-B13: environmental stress responsive promoter DNA, SEQ ID NO: 1, upstream of At1g01470 (LEA protein) (nucleic acid, listed as Arabidopsis thaliana) DNA: CCGCCAACTACCAACACCGACATATGTGCTTTCGGCAGTTTTGATATCATTCCAAAATTTCAATTATTATTTATCAAATTTATTTTCTTGGTAAAAGTTTAATTAATTTCAATTATTTGAATGTCTTAATTCACTGATTACAAATTATATATGTAATATATACATAACAATTTCGTTCGTGGAGTGTTATTATACTCCTTAAGCGAATCTGTATATTTTAAATAAAATTTTGATTTATGCACACGTACATGTTCAATTGAAACGTTTTCCCTAACTATAGATGCCAATAAATAATAAGTTGATTTTTAAAATGTACAAAACAAAAGGTACCGTTTTGTAAAATTTTGCAACCAAAAAGTACAATCGGCCGTTGAAAATCGTGGAACCAAACACTAATTAAAGAGAAGTGTGAATATAATCTAGTGTTTGCGGATTTATATTATAAAATTTGTGTATCACTAAAATGTCAAAGCATGCTTTGACTGGTCAATAAGTCAAATTAACTAACAAACCATGCGAGGCGTAGGTTTGACTTCTTAACATAAATGCTGACTCAGTTTTTCCATTCCGCAGCTGTCGACTAATTGGACACGCTTCTTCCAATCCCTTTCCACTAATCATCCATCAACACGTGACATGCCTACAGTGCACGACTTCACAGTGATCATGTCAAAGTTTTGTTTTTAAGAGAAGAAGATTCACGACTTCACAGTGATCATAGTCCAGTTACAAATTTGAATGGGCTTATGGCCTGTGGCCCATTTAAGTTTGACCTTAATATCCATCAGAAACCCATACCAATACGGGTCATAAGTGCATTGTCCATATAGTGTACCGCAATGCATGGGAGTACTACTACATTCCACCGACGTGCATATGGGGGGACATGGTCGGTCCATTAATCCCTTGCGCATCTTATTCCTTACGCGAATACTTTTCCCTCTTTTAGTTTTGTATAATACTTTCCATTTTTTTGGTATTAAATTTATCGTGTGACTATCTAAAAAGGTATTTAATTATCTAGTTTAGCTATAACTGCAAACAAAATATCTATTTTCATGAATGATATATTTTTGAAATAAAATATTGTTGTCATGTAACGAAAAAATCAAAAATCAAGCAGAAGACACGTATAACCCACGCTTTCACTCTCACTCGTGGAAAACCCTCACACGTACACAAACCATTATAAAATTTAATCCATTTACATCGACCGACTTCATAAGAACATCGTAATCCCATCCGTTTATATATATATTCCAAGTTAAACTTCATATCATACACACAAACCTAAAACACCGAAACAAAAACAAAGAGATTTAAACAAGAAGAGTTATT | Stem and leaf tissue (weak) | – | – | Stem and leaf tissue and root tissue | – | – | Stem and leaf tissue and root tissue | Dehydration and salt | weak gene expression in stem and leaf tissue | stem and leaf tissue and root tissue | Stem and leaf tissue | stem and leaf tissue | Stem and leaf tissue | stem and leaf tissue |
